Data reported in patent US6982321.

Biological target: isolated VL-domain of the reshaped anti-lysozyme Fv-fragment (HuVLLYS)
Assay: formaldehyde crosslinking of Fv, overloaded SDS gel

- fraction of crosslinked material: < 5%
B1: isolated VL-domain of the reshaped anti-lysozyme Fv-fragment (HuVLLYS) (protein)
VL: DIQMTQSPSSLSASVGDRVTITCRASGNIHNYLAWYQQKPGKAPKLLIYYTTTLADGVPSRFSGSGSGTDFTFTISSLQPEDIATYYCQHFWSTPRTFGQGTKVEIK
